Assays:
Assay in all cases: cell-based or functional assay
[1] = biological target: ACTR variant SEQ ID NO: 10
[2] = biological target: ACTR variant SEQ ID NO: 57
[3] = biological target: ACTR variant SEQ ID NO: 58
[4] = biological target: ACTR variant SEQ ID NO: 59
[5] = biological target: ACTR variant SEQ ID NO: 60
[6] = biological target: ACTR variant SEQ ID NO: 61
[7] = biological target: ACTR variant SEQ ID NO: 62
[8] = biological target: ACTR variant SEQ ID NO: 63
[9] = biological target: ACTR variant SEQ ID NO: 7
Sequence of ACTR variant SEQ ID NO: 7 (chain, as listed by the source mutant limits assumed): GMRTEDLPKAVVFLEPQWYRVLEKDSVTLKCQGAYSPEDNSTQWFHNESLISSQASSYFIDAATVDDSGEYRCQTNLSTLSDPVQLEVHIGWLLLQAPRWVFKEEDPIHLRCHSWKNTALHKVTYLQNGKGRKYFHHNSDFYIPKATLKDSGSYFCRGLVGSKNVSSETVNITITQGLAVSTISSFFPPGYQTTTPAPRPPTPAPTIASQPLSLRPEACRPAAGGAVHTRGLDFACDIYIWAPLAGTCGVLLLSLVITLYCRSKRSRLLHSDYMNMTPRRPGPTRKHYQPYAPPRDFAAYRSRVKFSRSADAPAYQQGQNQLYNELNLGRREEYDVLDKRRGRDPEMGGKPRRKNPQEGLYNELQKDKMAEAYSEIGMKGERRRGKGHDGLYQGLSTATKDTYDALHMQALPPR

Sequence of ACTR variant SEQ ID NO: 62 (chain, as listed by the source mutant limits assumed): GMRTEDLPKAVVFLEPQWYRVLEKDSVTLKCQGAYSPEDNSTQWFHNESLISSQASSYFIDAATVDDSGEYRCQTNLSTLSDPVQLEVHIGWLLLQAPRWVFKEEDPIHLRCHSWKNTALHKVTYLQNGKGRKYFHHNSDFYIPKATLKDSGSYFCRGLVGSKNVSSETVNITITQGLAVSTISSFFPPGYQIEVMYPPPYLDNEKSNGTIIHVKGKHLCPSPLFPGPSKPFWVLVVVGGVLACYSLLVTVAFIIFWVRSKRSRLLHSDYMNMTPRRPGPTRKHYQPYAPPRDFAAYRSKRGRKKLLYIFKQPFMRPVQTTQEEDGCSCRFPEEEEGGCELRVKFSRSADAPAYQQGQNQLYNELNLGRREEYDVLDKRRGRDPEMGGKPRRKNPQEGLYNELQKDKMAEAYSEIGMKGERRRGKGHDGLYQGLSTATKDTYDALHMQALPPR
Sequence of ACTR variant SEQ ID NO: 57 (chain, as listed by the source mutant): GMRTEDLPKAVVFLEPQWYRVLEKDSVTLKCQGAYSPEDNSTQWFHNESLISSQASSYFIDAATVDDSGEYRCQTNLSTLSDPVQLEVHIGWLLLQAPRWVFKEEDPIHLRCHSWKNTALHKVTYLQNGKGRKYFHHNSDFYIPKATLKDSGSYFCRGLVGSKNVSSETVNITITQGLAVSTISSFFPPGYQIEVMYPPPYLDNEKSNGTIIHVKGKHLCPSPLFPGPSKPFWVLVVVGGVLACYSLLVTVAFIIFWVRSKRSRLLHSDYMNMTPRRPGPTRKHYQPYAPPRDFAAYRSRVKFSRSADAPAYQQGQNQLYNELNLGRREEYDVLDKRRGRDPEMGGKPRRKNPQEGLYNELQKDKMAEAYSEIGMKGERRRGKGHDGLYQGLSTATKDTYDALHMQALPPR
Sequence of ACTR variant SEQ ID NO: 60 (chain, as listed by the source mutant limits assumed): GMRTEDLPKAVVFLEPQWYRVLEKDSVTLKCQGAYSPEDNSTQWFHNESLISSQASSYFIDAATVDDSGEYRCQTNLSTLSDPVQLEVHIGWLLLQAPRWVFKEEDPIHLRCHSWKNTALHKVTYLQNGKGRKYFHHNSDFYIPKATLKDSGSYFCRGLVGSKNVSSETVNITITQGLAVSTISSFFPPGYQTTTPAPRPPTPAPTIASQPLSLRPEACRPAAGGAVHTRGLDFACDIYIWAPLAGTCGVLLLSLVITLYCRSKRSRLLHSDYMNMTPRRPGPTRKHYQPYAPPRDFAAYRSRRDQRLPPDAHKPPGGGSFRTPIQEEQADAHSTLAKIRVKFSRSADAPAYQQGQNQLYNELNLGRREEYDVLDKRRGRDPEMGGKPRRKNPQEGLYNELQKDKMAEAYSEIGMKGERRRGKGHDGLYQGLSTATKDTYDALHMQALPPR
Sequence of ACTR variant SEQ ID NO: 59 (chain, as listed by the source mutant limits assumed): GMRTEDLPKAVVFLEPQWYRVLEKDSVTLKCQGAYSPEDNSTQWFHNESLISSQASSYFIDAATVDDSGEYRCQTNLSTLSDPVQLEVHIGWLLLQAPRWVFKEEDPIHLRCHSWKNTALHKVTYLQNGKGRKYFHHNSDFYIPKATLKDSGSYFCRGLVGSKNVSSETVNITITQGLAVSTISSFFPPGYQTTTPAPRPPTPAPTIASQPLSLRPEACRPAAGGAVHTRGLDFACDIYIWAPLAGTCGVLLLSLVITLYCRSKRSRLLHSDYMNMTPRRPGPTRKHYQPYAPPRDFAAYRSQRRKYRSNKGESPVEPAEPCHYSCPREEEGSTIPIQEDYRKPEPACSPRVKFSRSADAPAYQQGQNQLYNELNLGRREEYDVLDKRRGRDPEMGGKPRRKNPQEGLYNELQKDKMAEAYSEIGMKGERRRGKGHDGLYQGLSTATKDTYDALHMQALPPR
Sequence of ACTR variant SEQ ID NO: 10 (chain, as listed by the source mutant limits assumed): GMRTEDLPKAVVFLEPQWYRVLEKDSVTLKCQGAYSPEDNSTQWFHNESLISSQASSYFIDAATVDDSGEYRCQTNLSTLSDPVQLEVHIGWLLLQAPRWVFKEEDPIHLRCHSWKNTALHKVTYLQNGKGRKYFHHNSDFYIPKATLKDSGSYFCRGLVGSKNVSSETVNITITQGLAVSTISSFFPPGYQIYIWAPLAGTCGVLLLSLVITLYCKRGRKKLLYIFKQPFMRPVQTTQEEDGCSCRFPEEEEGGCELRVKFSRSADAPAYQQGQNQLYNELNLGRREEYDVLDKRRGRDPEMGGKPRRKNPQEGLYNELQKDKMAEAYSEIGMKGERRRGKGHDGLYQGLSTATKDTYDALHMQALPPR
Sequence of ACTR variant SEQ ID NO: 58 (chain, as listed by the source mutant): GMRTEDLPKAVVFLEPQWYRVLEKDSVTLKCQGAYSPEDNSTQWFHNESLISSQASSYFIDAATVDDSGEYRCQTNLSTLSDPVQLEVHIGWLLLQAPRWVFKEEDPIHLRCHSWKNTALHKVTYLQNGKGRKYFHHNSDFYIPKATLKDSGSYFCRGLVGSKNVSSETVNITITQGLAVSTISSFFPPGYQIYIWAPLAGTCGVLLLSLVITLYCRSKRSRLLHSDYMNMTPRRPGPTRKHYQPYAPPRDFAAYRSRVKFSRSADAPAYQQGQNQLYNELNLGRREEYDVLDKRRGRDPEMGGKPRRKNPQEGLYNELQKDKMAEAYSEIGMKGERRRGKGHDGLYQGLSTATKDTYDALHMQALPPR
Sequence of ACTR variant SEQ ID NO: 61 (chain, as listed by the source mutant limits assumed): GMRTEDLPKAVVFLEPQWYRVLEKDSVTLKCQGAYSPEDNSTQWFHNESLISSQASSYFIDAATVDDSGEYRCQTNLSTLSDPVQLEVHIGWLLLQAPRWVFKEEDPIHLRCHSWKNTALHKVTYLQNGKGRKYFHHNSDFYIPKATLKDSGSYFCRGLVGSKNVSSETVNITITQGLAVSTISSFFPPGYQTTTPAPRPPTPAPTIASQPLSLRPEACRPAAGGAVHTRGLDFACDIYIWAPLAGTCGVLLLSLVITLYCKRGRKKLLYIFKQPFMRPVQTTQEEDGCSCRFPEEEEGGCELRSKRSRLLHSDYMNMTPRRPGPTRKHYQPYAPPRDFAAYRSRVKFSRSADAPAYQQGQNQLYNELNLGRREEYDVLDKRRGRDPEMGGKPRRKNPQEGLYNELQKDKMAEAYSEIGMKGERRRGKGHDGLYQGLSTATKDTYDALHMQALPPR
Sequence of ACTR variant SEQ ID NO: 63 (chain, as listed by the source mutant limits assumed): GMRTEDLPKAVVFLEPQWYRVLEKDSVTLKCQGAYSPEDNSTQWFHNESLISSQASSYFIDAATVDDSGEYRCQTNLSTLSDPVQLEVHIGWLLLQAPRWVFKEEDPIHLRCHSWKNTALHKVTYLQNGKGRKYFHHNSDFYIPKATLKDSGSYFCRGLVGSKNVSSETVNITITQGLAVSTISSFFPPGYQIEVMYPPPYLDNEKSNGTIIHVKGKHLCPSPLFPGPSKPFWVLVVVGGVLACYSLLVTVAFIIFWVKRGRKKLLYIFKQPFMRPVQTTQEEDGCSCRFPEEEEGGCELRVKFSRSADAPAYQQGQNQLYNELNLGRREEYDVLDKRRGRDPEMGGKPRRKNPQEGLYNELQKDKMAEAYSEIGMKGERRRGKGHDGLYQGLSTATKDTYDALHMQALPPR

B1: humanized afucosylated (SEA) anti-BCMA antibody hSG16.17SEA (antibody, V domains shown)
VH: QVQLVQSGAEVKKPGASVKLSCKASGYTFTDYYIHWVRQAPGQGLEWIGYINPNSGYTNYAQKFQGRATMTADKSINTAYVELSRLRSDDTAVYFCTRYMWERVTGFFDFWGQGTMVTVSS
VL: DIQMTQSPSSVSASVGDRVTITCLASEDISDDLAWYQQKPGKAPKVLVYTTSSLQSGVPSRFSGSGSGTDFTLTISSLQPEDFATYFCQQTYKFPPTFGGGTKVEIKR
IFNγ Release (pg/mL), ACTR T cells + NCI-H929 Target Cells + hSG16.17SEA (1 µg/mL) [1]: 19800 pg/mL
IFNγ Release (pg/mL), ACTR T cells + U266B1 Target Cells + hSG16.17SEA (1 µg/mL) [1]: 7970 pg/mL
IL-2 Release (pg/mL), ACTR T cells + NCI-H929 Target Cells + hSG16.17SEA (1 µg/mL) [1]: 224 pg/mL
IL-2 Release (pg/mL), ACTR T cells + U266B1 Target Cells + hSG16.17SEA (1 µg/mL) [1]: 260 pg/mL
T-cell proliferation: fold increase in CD3+ cells at 1 µg/mL hSG16.17SEA relative to no antibody, NCI-H929 Target Cells [1]: 7.46 fold
T-cell proliferation: fold increase in CD3+ cells at 1 µg/mL hSG16.17SEA relative to no antibody, U266B1 Target Cells [1]: 1.62 fold
IFNγ Release (pg/mL), ACTR T cells + NCI-H929 Target Cells + hSG16.17SEA (1 µg/mL) [2]: 16700 pg/mL
IFNγ Release (pg/mL), ACTR T cells + U266B1 Target Cells + hSG16.17SEA (1 µg/mL) [2]: 12600 pg/mL
IL-2 Release (pg/mL), ACTR T cells + NCI-H929 Target Cells + hSG16.17SEA (1 µg/mL) [2]: 373 pg/mL
IL-2 Release (pg/mL), ACTR T cells + U266B1 Target Cells + hSG16.17SEA (1 µg/mL) [2]: 187 pg/mL
T-cell proliferation: fold increase in CD3+ cells at 1 µg/mL hSG16.17SEA relative to no antibody, NCI-H929 Target Cells [2]: 35.5 fold
T-cell proliferation: fold increase in CD3+ cells at 1 µg/mL hSG16.17SEA relative to no antibody, U266B1 Target Cells [2]: 49.5 fold
IFNγ Release (pg/mL), ACTR T cells + NCI-H929 Target Cells + hSG16.17SEA (1 µg/mL) [3]: 16800 pg/mL
IFNγ Release (pg/mL), ACTR T cells + U266B1 Target Cells + hSG16.17SEA (1 µg/mL) [3]: 12700 pg/mL
IL-2 Release (pg/mL), ACTR T cells + NCI-H929 Target Cells + hSG16.17SEA (1 µg/mL) [3]: 420 pg/mL
IL-2 Release (pg/mL), ACTR T cells + U266B1 Target Cells + hSG16.17SEA (1 µg/mL) [3]: 17.8 pg/mL
T-cell proliferation: fold increase in CD3+ cells at 1 µg/mL hSG16.17SEA relative to no antibody, NCI-H929 Target Cells [3]: 9.76 fold
T-cell proliferation: fold increase in CD3+ cells at 1 µg/mL hSG16.17SEA relative to no antibody, U266B1 Target Cells [3]: 4.75 fold
IFNγ Release (pg/mL), ACTR T cells + NCI-H929 Target Cells + hSG16.17SEA (1 µg/mL) [4]: 17100 pg/mL
IFNγ Release (pg/mL), ACTR T cells + U266B1 Target Cells + hSG16.17SEA (1 µg/mL) [4]: 12600 pg/mL
IL-2 Release (pg/mL), ACTR T cells + NCI-H929 Target Cells + hSG16.17SEA (1 µg/mL) [4]: 46.6 pg/mL
IL-2 Release (pg/mL), ACTR T cells + U266B1 Target Cells + hSG16.17SEA (1 µg/mL) [4]: 214 pg/mL
T-cell proliferation: fold increase in CD3+ cells at 1 µg/mL hSG16.17SEA relative to no antibody, NCI-H929 Target Cells [4]: 11.5 fold
T-cell proliferation: fold increase in CD3+ cells at 1 µg/mL hSG16.17SEA relative to no antibody, U266B1 Target Cells [4]: 6.91 fold
IFNγ Release (pg/mL), ACTR T cells + NCI-H929 Target Cells + hSG16.17SEA (1 µg/mL) [5]: 18600 pg/mL
IFNγ Release (pg/mL), ACTR T cells + U266B1 Target Cells + hSG16.17SEA (1 µg/mL) [5]: 14400 pg/mL
IL-2 Release (pg/mL), ACTR T cells + NCI-H929 Target Cells + hSG16.17SEA (1 µg/mL) [5]: 258 pg/mL
IL-2 Release (pg/mL), ACTR T cells + U266B1 Target Cells + hSG16.17SEA (1 µg/mL) [5]: 48.6 pg/mL
T-cell proliferation: fold increase in CD3+ cells at 1 µg/mL hSG16.17SEA relative to no antibody, NCI-H929 Target Cells [5]: 18.3 fold
T-cell proliferation: fold increase in CD3+ cells at 1 µg/mL hSG16.17SEA relative to no antibody, U266B1 Target Cells [5]: 11.7 fold
IFNγ Release (pg/mL), ACTR T cells + NCI-H929 Target Cells + hSG16.17SEA (1 µg/mL) [6]: 22900 pg/mL
IFNγ Release (pg/mL), ACTR T cells + U266B1 Target Cells + hSG16.17SEA (1 µg/mL) [6]: 11600 pg/mL
IL-2 Release (pg/mL), ACTR T cells + NCI-H929 Target Cells + hSG16.17SEA (1 µg/mL) [6]: 178 pg/mL
IL-2 Release (pg/mL), ACTR T cells + U266B1 Target Cells + hSG16.17SEA (1 µg/mL) [6]: 132 pg/mL
T-cell proliferation: fold increase in CD3+ cells at 1 µg/mL hSG16.17SEA relative to no antibody, NCI-H929 Target Cells [6]: 15.8 fold
T-cell proliferation: fold increase in CD3+ cells at 1 µg/mL hSG16.17SEA relative to no antibody, U266B1 Target Cells [6]: 8.72 fold
IFNγ Release (pg/mL), ACTR T cells + NCI-H929 Target Cells + hSG16.17SEA (1 µg/mL) [7]: 14500 pg/mL
IFNγ Release (pg/mL), ACTR T cells + U266B1 Target Cells + hSG16.17SEA (1 µg/mL) [7]: 7580 pg/mL
IL-2 Release (pg/mL), ACTR T cells + NCI-H929 Target Cells + hSG16.17SEA (1 µg/mL) [7]: 119 pg/mL
IL-2 Release (pg/mL), ACTR T cells + U266B1 Target Cells + hSG16.17SEA (1 µg/mL) [7]: 12.3 pg/mL
T-cell proliferation: fold increase in CD3+ cells at 1 µg/mL hSG16.17SEA relative to no antibody, NCI-H929 Target Cells [7]: 6.24 fold
T-cell proliferation: fold increase in CD3+ cells at 1 µg/mL hSG16.17SEA relative to no antibody, U266B1 Target Cells [7]: 2.87 fold
IFNγ Release (pg/mL), ACTR T cells + NCI-H929 Target Cells + hSG16.17SEA (1 µg/mL) [8]: 16000 pg/mL
IFNγ Release (pg/mL), ACTR T cells + U266B1 Target Cells + hSG16.17SEA (1 µg/mL) [8]: 10400 pg/mL
IL-2 Release (pg/mL), ACTR T cells + NCI-H929 Target Cells + hSG16.17SEA (1 µg/mL) [8]: 66.5 pg/mL
IL-2 Release (pg/mL), ACTR T cells + U266B1 Target Cells + hSG16.17SEA (1 µg/mL) [8]: 1.6 pg/mL
T-cell proliferation: fold increase in CD3+ cells at 1 µg/mL hSG16.17SEA relative to no antibody, NCI-H929 Target Cells [8]: 3.76 fold
T-cell proliferation: fold increase in CD3+ cells at 1 µg/mL hSG16.17SEA relative to no antibody, U266B1 Target Cells [8]: 2.82 fold
IFNγ Release (pg/mL), ACTR T cells + NCI-H929 Target Cells + hSG16.17SEA (1 µg/mL) [9]: 6250 pg/mL
IFNγ Release (pg/mL), ACTR T cells + U266B1 Target Cells + hSG16.17SEA (1 µg/mL) [9]: 13700 pg/mL
IL-2 Release (pg/mL), ACTR T cells + NCI-H929 Target Cells + hSG16.17SEA (1 µg/mL) [9]: 262 pg/mL
IL-2 Release (pg/mL), ACTR T cells + U266B1 Target Cells + hSG16.17SEA (1 µg/mL) [9]: 34.8 pg/mL
T-cell proliferation: fold increase in CD3+ cells at 1 µg/mL hSG16.17SEA relative to no antibody, NCI-H929 Target Cells [9]: 80.1 fold
T-cell proliferation: fold increase in CD3+ cells at 1 µg/mL hSG16.17SEA relative to no antibody, U266B1 Target Cells [9]: 52 fold

From patent publication US20190381171A1, “CO-USE OF ANTI-BCMA ANTIBODY AND ANTIBODY-COUPLED T CELL RECEPTOR (ACTR) IN CANCER THERAPY AND B CELL DISORDERS” (UNUM THERAPEUTICS INC., priority 2017, published 2019)
